The results in this text go back to the supplement of paper PMC10567573.

± gives the standard deviation.

A short description of the data set: protein stability index of a GFP-peptide fusion (GPS, HEK-293T) (PSI 1-6); higher = more stable.
The mark [1] stands for this setting: treatment: DMSO, c terminus: a fixed tail appended.
Where [2] appears, read: treatment: MLN4924 1 uM, 8 h, c terminus: a fixed tail appended.
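Further: 24-mer peptide tiles fused after GFP, lentivirally expressed, FACS-sorted into six equal bins by GFP/DsRed ratio, decoded by Illumina sequencing, PSI is the read-weighted mean bin number.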

On to EYTCDVEKRSRGQVLFDKVCEHLN [EPB41L3], for which the protein stability index stood at 2.16 ± 0.32 under setting [1] and 2.05 ± 0.61 under setting [2].
For FAVLHWKPPQNPVDTYDVQVTAPG [TNXB], in that order: 2.76 ± 0.25 and 2.68 ± 0.46.
Regarding FDALDDYEHHYHTLHGNVCSFCKR [ZNF511], the protein stability index runs as follows: under setting [1], 3.83 ± 0.33; under setting [2], 4.19 ± 0.41.
The corresponding values for FDVGGQRSERKKWIHCFEGVTAII [GNAI1] are 2.29 ± 0.44 and 1.95 ± 0.37.
The corresponding values for FELQRLEFDLSPLNLDIGQVYKET [AASDHPPT] are 2.42 ± 0.092 and 2.29 ± 0.62.
For FESFPAGSTLIFYKYCDHENAAFK [TOR1AIP2], in that order: 2.17 ± 0.14 and 2.17 ± 0.23.
Regarding FFSEIISSVSDVKFSHSGRYMLTR [PPP2R2C], the protein stability index reads like this: under setting [1], 2.08 ± 0.48; under setting [2], 2.06 ± 0.22.
With FIEERRQGLEQFINKIAGHPLAQN [SNX12], the protein stability index reads like this: under setting [1], 2.73 ± 0.17; under setting [2], 2.94 ± 0.47.
Turning to FKDLNESLNALEDQDLDALMADLV [APBB1IP], the protein stability index was 3.19 ± 0.26 under setting [1] and 3.52 ± 0.26 under setting [2].
Consider FLCGRALTSDLYAPMVAGALARLG [SLC25A39], for which the protein stability index reads like this: under setting [1], 2.85 ± 0.26; under setting [2], 3.02 ± 0.64.
The corresponding values for FLLRNSQRTVGQLMELCRLYHRAD [EDARADD] are 2.12 ± 0.24 and 2.23 ± 0.25.
As for FLVRLLMAMAVMLYYSNFVLALEE [MFSD9], the protein stability index is 2.85 ± 0.14 under setting [1] and 3.02 ± 0.21 under setting [2].
Take FNKPSRVPAPEAFRDPIWSTWALY [MYORG]: the protein stability index under setting [1] worked out at 2.23 ± 0.46 and the protein stability index under setting [2] stood at 2.25 ± 0.47.
For FNSTYNARVKAFNKTGVSPYSKTL [TRIM9], the protein stability index is 2.55 ± 0.41 under setting [1] and 2.85 ± 0.38 under setting [2].
The corresponding values for FPNIASATKFKQLYRSRMNSLEMT [HMOX1] are 2.37 ± 0.16 and 2.62 ± 0.23.
The corresponding values for FQASNPYLPTRGGTTMASGGRFRC [TRIM55] are 2.54 ± 0.65 and 3.14 ± 0.7.
Consider FQEAMTHLQHKLICTRKPEEIRGG [TENT5D], for which the protein stability index under setting [1] was determined as 3.05 ± 0.17 and the protein stability index under setting [2] worked out at 3.29 ± 0.41.
For FQQPAPEYHQPQAPANVAKIQLRL [LOXL2], in that order: 2.81 ± 0.23 and 3.08 ± 0.28.
The corresponding values for FRTDPEAKVKLVFVEDQAVVETVF [ZSWIM9] are 2.46 ± 0.38 and 2.5 ± 0.32.
The corresponding values for FSHEILRDEESFFGERRIPRGRRI [ALKBH7] are 3.34 ± 0.4 and 3.84 ± 0.4.
For FSKSKELHPDRDPGNPSLHSRFVE [DNAJC4], the protein stability index under setting [1] is 3.91 ± 0.25 and the protein stability index under setting [2] was determined as 4.22 ± 0.12.
The corresponding values for FSLLEELKEGMLMKIKQDRASRTY [FSD1] are 2.63 ± 0.42 and 2.66 ± 0.14.
Take FSSSSQEAFAASAVGSGERRGGGP [ZBTB22]: the protein stability index by setting is: under setting [1], 3.66 ± 0.32; under setting [2], 4.03 ± 0.34.
Regarding FTFLRPLSVQQPTALALEPDAIRS [PCDHGC5], the protein stability index is, setting by setting: under setting [1], 2.89 ± 0.3; under setting [2], 3.03 ± 0.31.
As for FTGNFFYNYMMGIEFNPRIGKWFD [DHCR7], the protein stability index runs as follows: under setting [1], 2.59 ± 0.57; under setting [2], 2.21 ± 0.43.
Consider FTLGDCDVIQALDLSVPLMDVGET [FKBP8], for which the protein stability index worked out at 3.53 ± 0.093 under setting [1] and 3.54 ± 0.24 under setting [2].
Turning to FVEYCDVNNDKSISVQELMGCLGV [SMOC2], the protein stability index by setting is: under setting [1], 2.39 ± 0.86; under setting [2], 2.46 ± 0.38.
For FVLAEDGRRCKKCTEGPIDLVFVI [MATN2], in that order: 3.06 ± 0.44 and 2.5 ± 0.31.
For FVRLFVDENLDRMVPISKQPKEKI [NOL4L], in that order: 2.41 ± 0.098 and 2.65 ± 0.12.
For FWNIKQMWDTKTLGLRQHHCRKCG [WDFY1], the protein stability index by setting is: under setting [1], 2.64 ± 0.25; under setting [2], 2.86 ± 0.49.
In the case of FWRDWEDYAHGFGNISGEFWLGNE [TNXB], the protein stability index by setting is: under setting [1], 2.78 ± 0.9; under setting [2], 2.46 ± 0.51.
For GAASLPSELIVHIFSFLPAPDRLR [FBXO33], in that order: 2.6 ± 0.74 and 2.74 ± 0.39.
The corresponding values for GAAVVRPPGHHAEQDAACGFCFFN [HDAC6] are 3.14 ± 0.36 and 3.26 ± 0.25.
For GAGAVSRTCTAPLDRLKVLMQVHA [SLC25A25], in that order: 2.32 ± 0.48 and 2.41 ± 0.14.
Take GALEALELSPPLSPASHVDVDLTI [FOXJ1]: the protein stability index reads like this: under setting [1], 3.17 ± 0.23; under setting [2], 3.43 ± 0.36.
GASLRLAVEDGLQQFKQYSRHVTT [M1AP] came in with a protein stability index under setting [1] of 3.06 ± 0.15 and a protein stability index under setting [2] of 3.19 ± 0.43.
For GASVRGLHPVQKVILNYPSPWDQE [TRAF3IP2], the protein stability index under setting [1] was 3.79 ± 0.33 and the protein stability index under setting [2] is 4.1 ± 0.36.
Consider GATAASETLSGHGPLAQPLTLQVL [ADAMTS4], for which the protein stability index was determined as 3.28 ± 0.29 under setting [1] and 3.19 ± 0.36 under setting [2].
The corresponding values for GCDPLVKPVGRQACDLQPCPTEPP [ADAMTSL2] are 4.2 ± 0.049 and 4.54 ± 1.2.
Consider GCFLLILGQIVLLPAEARERSRGR [MATN2], for which the protein stability index by setting is: under setting [1], 1.97 ± 0.083; under setting [2], 2.31 ± 0.48.
As to GCLENMPEADCIPKEQLSTSFQWV [PLK2], the protein stability index is, setting by setting: under setting [1], 3.57 ± 0.2; under setting [2], 3.45 ± 0.36.
The corresponding values for GDIQELYDTTLALGHAAAFSDDCD [GLT8D2] are 5.24 ± 0.12 and 5.23 ± 0.14.
The corresponding values for GDLIEITDAKKREALYAQDPSTGC [KMT5A] are 5 ± 0.24 and 4.86 ± 0.33.
The corresponding values for GEPGAAAPAMYDDESAIDFSAYID [CEBPD] are 5.28 ± 0.21 and 5.08 ± 0.29.
In the case of GEQPEPGEAAAGGAAEEARRLEQR [ACBD3], the protein stability index was 5.53 ± 0.34 under setting [1] and 5.44 ± 0.24 under setting [2].
As for GEVVTESQKEQRSELDKSSAHSY [PRPH], the protein stability index was 5.67 ± 0.24 (treatment: DMSO, c terminus: native) and 5.77 ± 0.1 (treatment: MLN4924 1 uM, 8 h, c terminus: native).
For the sequence GGAGSGFGGGYGGGLGGGYGGGLG [KRT13], the protein stability index came to 3.35 ± 0.2 under setting [1] and 2.85 ± 0.2 under setting [2].
For GGFGGGDGGLLSGNEKITMQNLND [KRT15], in that order: 4.76 ± 0.3 and 4.88 ± 0.27.
The corresponding values for GGKSGGIVISPFRLEELTNRLASL [CCDC6] are 2.58 ± 0.33 and 2.69 ± 0.22.
Consider GHLEIVKYLVEHKADLEVSNRHGH [FEM1C], for which the protein stability index came out at 2.7 ± 0.45 under setting [1] and 2.94 ± 0.26 under setting [2].
The corresponding values for GIAQVKIQGQNKEMLAAACQMFLG [FLOT1] are 2.34 ± 0.12 and 2.69 ± 0.1.
The corresponding values for GIEEVTYENCLQALADVEVKYIVE [NLN] are 3.29 ± 0.37 and 3.34 ± 0.34.
